Assay results as given in patent publication US6479459 (IMMUNEX, dated 2002).

Target: T1, soluble elk/Fc fusion protein (rat elk extracellular domain fused to human IgG1 Fc) (rat; human, UniProt P09759 18-540; P01857 99-330 = IgG part, limits assumed)
T1 construct: extracellular domain;domain: Fc region; Expressed transiently in mammalian host cells and purified on protein A sepharose
Test: Scatchard analysis; elk/Fc at various concentrations on CV1-EBNA-1 cells expressing LERK-5, detected with 125I-mouse anti-human IgG
Experimental: CV1-EBNA-1 cells in 10 cm² dishes were transfected with the recombinant expression vector containing LERK-5 DNA. The CV-1/EBNA-1 cell line (ATCC CRL 10478) constitutively expresses EBV nuclear antigen-1 driven from the CMV immediate-early enhancer/promoter. CV1-EBNA-1 was derived from the African Green Monkey kidney cell line CV-1 (ATCC CCL 70), as described by McMahan et al. (*EMBO J*. 10:2821, 1991).
The transfected cells were cultured for 24 hours, and the cells in each dish then were split into a 24-well plate. After culturing an additional 48 hours, a binding assay was conducted by the following procedure. The transfected cells (about 4×10^4 cells/well) were washed with BM-NFDM, which is binding medium (RPMI 1640 containing 25 mg/ml bovine serum albumin, 2 mg/ml sodium azide, 20 mM Hepes pH 7.2) to which 50 mg/ml nonfat dry milk has been added. The cells then were incubated for 1 hour at 37° C. with various concentrations of the elk/Fc fusion protein prepared in Example 2 or the hek/Fc fusion protein prepared in Example 3. Cells then were washed and incubated with a constant saturating concentration of a ^125I-mouse anti-human IgG in binding medium, with gentle agitation for 1 hour at 37° C. After extensive washing, cells were released via trypsinization. […]

T1 sequence (P09759 other isoform, or with tags, fused parts or gaps limits assumed): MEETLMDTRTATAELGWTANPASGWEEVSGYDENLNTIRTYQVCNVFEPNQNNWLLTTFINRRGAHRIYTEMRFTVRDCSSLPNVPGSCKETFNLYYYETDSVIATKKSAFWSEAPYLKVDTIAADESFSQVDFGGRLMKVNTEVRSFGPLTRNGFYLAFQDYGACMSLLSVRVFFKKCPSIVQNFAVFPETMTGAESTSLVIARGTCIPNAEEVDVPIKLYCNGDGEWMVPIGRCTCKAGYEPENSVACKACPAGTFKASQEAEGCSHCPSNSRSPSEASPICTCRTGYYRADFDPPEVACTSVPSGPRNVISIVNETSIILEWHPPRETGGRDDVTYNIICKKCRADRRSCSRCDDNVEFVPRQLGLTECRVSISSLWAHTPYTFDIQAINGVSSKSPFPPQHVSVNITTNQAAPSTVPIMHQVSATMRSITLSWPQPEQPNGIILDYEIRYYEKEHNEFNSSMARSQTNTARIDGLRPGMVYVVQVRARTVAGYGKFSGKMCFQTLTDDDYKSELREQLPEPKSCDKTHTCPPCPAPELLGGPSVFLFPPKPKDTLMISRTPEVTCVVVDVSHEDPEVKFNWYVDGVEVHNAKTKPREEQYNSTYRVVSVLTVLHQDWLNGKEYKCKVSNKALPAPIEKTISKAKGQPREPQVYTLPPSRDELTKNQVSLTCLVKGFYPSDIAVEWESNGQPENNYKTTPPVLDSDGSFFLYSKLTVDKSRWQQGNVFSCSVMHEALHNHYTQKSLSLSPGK

B1: human LERK-5 (recombinant, full length, expressed on the surface of transfected CV1-EBNA-1 cells) (ligand)
chain: KSIVLEPIYWNSSNSKFLPGQGLVLYPQIGDKLDIICPKVDSKTVGQYEYYKVYMVDKDQADRCTIKKENTPLLNCAKPDQDIKFTIKFQEFSPNLWGLEFQKNKDYYIISTSNGSLEGLDNQEGGVCQTRAMKILMKVGQDASSAGSTRNKDPTRRPELEAGTNGRSSTTSPFVKPNPGSSTDGNSAGHSGNNILGSEVALFAGIASGCIIFIVIIITLVVLLLKYRRRHRKHSPQHTTTLSLSTLATPKRSGNNNGSEPSDIIIPLRTADSVFCPHYEKVSGDYGHPVYIVQEMPPQSPANIYYKV
notes: The whole coding region of clone λ6 was expressed from pDC410 in CV1-EBNA-1 cells; also called clone λ6 protein
- Ka: 1.05e+09 M⁻¹
